The source of these data is patent US20210070811A1 (BOARD OF TRUSTEES OF MICHIGAN STATE UNIVERSITY, published 2021).

The data set concerns the molecule itself. The data set can be described thus: circular dichroism of PilA19 with SDS at pH 3.8; 222 nm/208 nm intensity ratio of 1. Background: Circular dichroism is widely used to follow secondary structure.

B1: PilA19 (truncated PilA pilin peptide of Geobacter sulfurreducens lacking the first 19 N-terminal amino acids of the mature PilA) (peptide)
peptide: AIPQFSAYRVKAYNSAASSDLRNLKTALESAFADDQTYPPES
notes: Recombinant peptide made in E. coli as a CBD-intein fusion and released by DTT-induced intein splicing; 42 residues; It self-assembles into a fibre; also called PilA19 peptide; recombinant PilA19
Regarding B1, the binding result was “binds”.
